From publication PMC12623541

Molecular target: androgen receptor (AR) (human (endogenous in LNCaP and C4-2)) (UniProt P10275)
Assay: co-IP; lysates (RIPA buffer) of LNCaP and C4-2 cells transfected with siNC or siKMT2D; immunoprecipitation with primary antibody and Protein A/G agarose at 4 °C, western blot for AR and E3 ubiquitin ligases; which protein was precipitated is not stated for this panel

Sequence of UniProt P10275 (P10275 whole entry): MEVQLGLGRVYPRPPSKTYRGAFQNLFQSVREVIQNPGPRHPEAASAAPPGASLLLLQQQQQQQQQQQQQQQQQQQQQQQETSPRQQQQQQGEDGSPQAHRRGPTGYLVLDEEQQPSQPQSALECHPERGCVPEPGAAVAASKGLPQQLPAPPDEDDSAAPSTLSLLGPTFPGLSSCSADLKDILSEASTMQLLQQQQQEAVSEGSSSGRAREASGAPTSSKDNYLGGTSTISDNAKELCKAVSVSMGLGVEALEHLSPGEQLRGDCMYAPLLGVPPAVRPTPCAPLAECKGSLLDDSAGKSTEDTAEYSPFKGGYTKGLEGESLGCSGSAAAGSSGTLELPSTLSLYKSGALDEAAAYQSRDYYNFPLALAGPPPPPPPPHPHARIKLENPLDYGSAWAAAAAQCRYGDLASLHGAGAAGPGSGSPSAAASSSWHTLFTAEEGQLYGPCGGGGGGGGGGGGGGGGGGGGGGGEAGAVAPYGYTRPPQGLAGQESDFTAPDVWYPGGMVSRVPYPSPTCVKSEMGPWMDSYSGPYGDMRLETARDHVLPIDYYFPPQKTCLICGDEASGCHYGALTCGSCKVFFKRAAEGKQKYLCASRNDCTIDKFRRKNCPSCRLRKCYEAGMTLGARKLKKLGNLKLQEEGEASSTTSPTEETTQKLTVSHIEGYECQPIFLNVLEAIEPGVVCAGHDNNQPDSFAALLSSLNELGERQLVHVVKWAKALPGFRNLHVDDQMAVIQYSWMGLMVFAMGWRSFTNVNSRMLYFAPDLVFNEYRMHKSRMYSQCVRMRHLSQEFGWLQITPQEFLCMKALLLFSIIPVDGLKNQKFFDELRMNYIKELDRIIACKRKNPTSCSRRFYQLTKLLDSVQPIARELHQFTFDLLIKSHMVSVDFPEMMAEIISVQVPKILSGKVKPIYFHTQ

- fold change of SPOP bound to AR after KMT2D knockdown against control (C4-2 cells): 1.57 fold
- fold change of SPOP bound to AR after KMT2D knockdown against control (LNCaP cells): 1.41 fold
Substance: Speckle Type BTB/POZ protein (SPOP) (from UniProt O43791 1-374) (natural protein)
